Measured values taken from patent US20250326848A1.
Each block holds one substance with its values, some of them ahead of it.

Experiments:
[1] = biological target: human CD47 on Jurkat cells (human) (UniProt Q08722); assay: FACS, whole cell binding to Jurkat cells; bottom panel 'Anti-CD47 Binding to CD47+ cells'; fit value printed for the control curve; nM is from the axis
[2] = biological target: human CD47 on Jurkat cells (human) (UniProt Q08722); assay: FACS, whole cell binding to Jurkat cells; top panel 'HLX305 Binding to CD47+ Jurkat Cells'; fit value given for a flat control curve; nM is from the axis
[3] = biological target: human CD47 on Jurkat cells (human) (UniProt Q08722); assay: FACS, whole cell binding to Jurkat cells; middle panel 'Anti-CD47 whole cell binding to Jurkat'; fit value given for a flat control curve; nM is from the axis
[4] = biological target: human CD47 on Jurkat cells (human) (UniProt Q08722); assay: FACS, whole cell binding to Jurkat cells; bottom panel 'Anti-CD47 Binding to CD47+ cells', nM is from the axis 'Conc. (nM)'
[5] = biological target: human CD47 on primary human platelets (human) (UniProt Q08722); assay: FACS, binding to primary human platelets, donor1
[6] = biological target: human CD47 on primary human platelets (human) (UniProt Q08722); assay: FACS, binding to primary human platelets, donor 2
[7] = biological target: human CD47 on primary human red blood cells (human) (UniProt Q08722); assay: FACS, whole cell binding to primary human red blood cells, Donor1
[8] = biological target: human CD47 on primary human red blood cells (human) (UniProt Q08722); assay: FACS, whole cell binding to primary human red blood cells, Donor2
[9] = biological target: human CD47 on Jurkat cells (human) (UniProt Q08722); assay: FACS, whole cell binding to Jurkat cells; middle panel 'Anti-CD47 whole cell binding to Jurkat', nM is from the axis 'Conc(nM)'
[10] = biological target: human PDL1 expressed on CHO cells (human) (UniProt Q9NZQ7)
human PDL1 expressed on CHO cells (human), sequence (Q9NZQ7 19-290 limits assumed): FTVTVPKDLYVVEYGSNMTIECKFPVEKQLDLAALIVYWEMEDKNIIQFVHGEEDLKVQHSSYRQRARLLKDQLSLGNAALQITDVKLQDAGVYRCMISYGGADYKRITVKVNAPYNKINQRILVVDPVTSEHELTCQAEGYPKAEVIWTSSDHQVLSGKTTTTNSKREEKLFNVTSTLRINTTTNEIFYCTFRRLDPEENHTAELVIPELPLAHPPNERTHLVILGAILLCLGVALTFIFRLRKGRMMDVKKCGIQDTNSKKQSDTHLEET

EC50 [1]: 50 nM
EC50 [2]: 6.73 nM
EC50 [3]: 0.00976 nM
Substance: IgG isotype antibody (negative control)

EC50 [4]: 8.29 nM
Substance: PF-07257876 analog (anti-PDL1/CD47 antibody of US 20210179716 A1, synthesized in-house) (bispecific antibody)

EC50 (read off the curve) [5]: 1 nM
EC50 (read off the curve) [6]: 0.8 nM
EC50 (read off the curve) [7]: 2 nM
EC50 (read off the curve) [8]: 2 nM
EC50 [9]: 0.682 nM
Substance: IBI322 analog (anti-PDL1/CD47 antibody of US 20220227870 A1, synthesized in-house) (bispecific antibody)

EC50; whole cell PDL1/PD1 blocking assay, NFAT luciferase reporter (RLU) [10]: 0.0532 nM
Substance: Reference Ab 1 (analog of MPDL3280A, synthesized in-house from WO2016007235A1) (antibody)
